Tested on: p33^QIK, quiescence induced kinase, 33-kDa Krsl-related cytoplasmic protein kinase, endogenous in mouse NIH3T3 cytosolic lysate (S20)

Protein phosphatase 1 (PP1) (NE BioLabs)
kinase activity of p33^QIK in Ab-KQ immune complexes after phosphatase treatment (in-gel kinase assay, MBP substrate): treatment of activated p33^QIK with protein phosphatase PP1 ... resulted in deactivation of p33^QIK This deactivation was suppressed by phosphatase inhibitors

Reference: patent US20030170252
